Experimental data published in ChEMBL document CHEMBL1124237, “Linear free energy relationship studies of enzyme active site binding: thymidylate synthase” (J Med Chem, 1988).

Tests used:
[1] = substrate: N#Cc1ccc(-c2cn([C@H]3C[C@H](O)[C@@H](COP(=O)(O)O)O3)c(=O)[nH]c2=O)cc1; details: Mus musculus
Description: (§1) Inhibitory effect on murine leukemia (L1210) thymidylate synthase

[2] = substrate: O=c1[nH]c(=O)n([C@H]2C[C@H](O)[C@@H](COP(=O)(O)O)O2)cc1-c1ccc(O)cc1; details: Mus musculus
Description: as §1

[3] = substrate: COC(=O)c1ccc(-c2cn([C@H]3C[C@H](O)[C@@H](COP(=O)(O)O)O3)c(=O)[nH]c2=O)cc1; details: Mus musculus
Description: as §1

[4] = substrate: NC(=O)c1ccc(-c2cn([C@H]3C[C@H](O)[C@@H](COP(=O)(O)O)O3)c(=O)[nH]c2=O)cc1; details: Mus musculus
Description: as §1

[5] = substrate: N#Cc1ccc(-c2cn([C@H]3C[C@H](O)[C@@H](COP(=O)(O)O)O3)c(=O)[nH]c2=O)cc1; details: Homo sapiens
Description: (§2) Inhibitory effect on human lymphoblast (Molt/4F) thymidylate synthase

[6] = substrate: O=c1[nH]c(=O)n([C@H]2C[C@H](O)[C@@H](COP(=O)(O)O)O2)cc1-c1ccc(O)cc1; details: Homo sapiens
Description: as §2

[7] = substrate: COC(=O)c1ccc(-c2cn([C@H]3C[C@H](O)[C@@H](COP(=O)(O)O)O3)c(=O)[nH]c2=O)cc1; details: Homo sapiens
Description: as §2

[8] = substrate: NC(=O)c1ccc(-c2cn([C@H]3C[C@H](O)[C@@H](COP(=O)(O)O)O3)c(=O)[nH]c2=O)cc1; details: Homo sapiens
Description: as §2

[9] = substrate: N#Cc1ccc(-c2cn([C@H]3C[C@H](O)[C@@H](COP(=O)(O)O)O3)c(=O)[nH]c2=O)cc1; details: Lacticaseibacillus casei
Description: (§3) Inhibitory effect against Lactobacillus casei thymidylate synthase

[10] = substrate: O=c1[nH]c(=O)n([C@H]2C[C@H](O)[C@@H](COP(=O)(O)O)O2)cc1-c1ccc(O)cc1; details: Lacticaseibacillus casei
Description: as §3

[11] = substrate: COC(=O)c1ccc(-c2cn([C@H]3C[C@H](O)[C@@H](COP(=O)(O)O)O3)c(=O)[nH]c2=O)cc1; details: Lacticaseibacillus casei
Description: as §3

[12] = substrate: NC(=O)c1ccc(-c2cn([C@H]3C[C@H](O)[C@@H](COP(=O)(O)O)O3)c(=O)[nH]c2=O)cc1; details: Lacticaseibacillus casei
Description: as §3

B1: Thymidylate synthase (Mus musculus), P07607 (protein)
chain: MLVVGSELQSDAQQLSAEAPRHGELQYLRQVEHILRCGFKKEDRTGTGTLSVFGMQARYSLRDEFPLLTTKRVFWKGVLEELLWFIKGSTNAKELSSKGVRIWDANGSRDFLDSLGFSARQEGDLGPVYGFQWRHFGAEYKDMDSDYSGQGVDQLQKVIDTIKTNPDDRRIIMCAWNPKDLPLMALPPCHALCQFYVVNGELSCQLYQRSGDMGLGVPFNIASYALLTYMIAHITGLQPGDFVHTLGDAHIYLNHIEPLKIQLQREPRPFPKLKILRKVETIDDFKVEDFQIEGYNPHPTIKMEMAV
[1]
  Km: 1.27 µM
[2]
  Km: 1.28 µM
[3]
  Km: 1.28 µM
[4]
  Km: 1.28 µM

B2: Thymidylate synthase (Homo sapiens), P04818 (protein)
chain: MPVAGSELPRRPLPPAAQERDAEPRPPHGELQYLGQIQHILRCGVRKDDRTGTGTLSVFGMQARYSLRDEFPLLTTKRVFWKGVLEELLWFIKGSTNAKELSSKGVKIWDANGSRDFLDSLGFSTREEGDLGPVYGFQWRHFGAEYRDMESDYSGQGVDQLQRVIDTIKTNPDDRRIIMCAWNPRDLPLMALPPCHALCQFYVVNSELSCQLYQRSGDMGLGVPFNIASYALLTYMIAHITGLKPGDFIHTLGDAHIYLNHIEPLKIQLQREPRPFPKLRILRKVEKIDDFKAEDFQIEGYNPHPTIKMEMAV
[5]
  Km: 1.51 µM
[6]
  Km: 1.54 µM
[7]
  Km: 1.38 µM
[8]
  Km: 1.48 µM

B3: Thymidylate synthase (Lactobacillus casei), P00469 (protein)
chain: MLEQPYLDLAKKVLDEGHFKPDRTHTGTYSIFGHQMRFDLSKGFPLLTTKKVPFGLIKSELLWFLHGDTNIRFLLQHRNHIWDEWAFEKWVKSDEYHGPDMTDFGHRSQKDPEFAAVYHEEMAKFDDRVLHDDAFAAKYGDLGLVYGSQWRAWHTSKGDTIDQLGDVIEQIKTHPYSRRLIVSAWNPEDVPTMALPPCHTLYQFYVNDGKLSLQLYQRSADIFLGVPFNIASYALLTHLVAHECGLEVGEFIHTFGDAHLYVNHLDQIKEQLSRTPRPAPTLQLNPDKHDIFDFDMKDIKLLNYDPYPAIKAPVAV
[9]
  Km: 4.37 µM
[10]
  Km: 4.8 µM
[11]
  Km: 4.19 µM
[12]
  Km: 4.01 µM
